The text below walks through data of publication PMC10873366.

In assay [1] the target is Sox2 N-terminal domain and DBD (N-DBD). The experiment in a line: NMR; residue Ala 287. Particulars: domain or fragment; Limits are not printed. They are inferred from the C-IDR label position 120, the +9/-9 charge count, and 180 observable HSQC peaks (198 residues minus 17 Pro and the N-terminal residue). The NMR sample was 15N-labelled or unlabelled. The His6-SUMO tag was removed. The smFRET version carries dyes at 120 and 265. Limits are not printed. They are inferred from 109 expected HSQC peaks (119 residues m); modification not given.
Chain of Sox2 N-terminal domain and DBD (N-DBD) (chain, as listed by the source): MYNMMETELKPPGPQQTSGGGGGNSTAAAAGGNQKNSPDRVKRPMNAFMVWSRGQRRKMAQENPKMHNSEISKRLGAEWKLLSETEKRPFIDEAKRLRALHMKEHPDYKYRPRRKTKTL

Assay [2] has the same target. The experiment in a line: NMR; residue Ser 290. Particulars: domain or fragment; Limits are not printed. They are inferred from the C-IDR label position 120, the +9/-9 charge count, and 180 observable HSQC peaks (198 residues minus 17 Pro and the N-terminal residue). The NMR sample was 15N-labelled or unlabelled. The His6-SUMO tag was removed. The smFRET version carries dyes at 120 and 265. Limits are not printed. They are inferred from 109 expected HSQC peaks (119 residues m); modification not given.

B1: Sox2 C-terminal intrinsically disordered region (C-IDR) (protein)
chain: MKKDKYTLPGGLLAPGGNSMASGVGVGAGLGAGVNQRMDSYAHMNGWSNGSYSMMQDQLGYPQHPGLNAHGAAQMQPMHRYDVSALQYNSMTSSQTYMNGSPTYSMSYSQQGTPGMALGSMGSVVKSEASSSPPVVTSSSHSRAPCQAGDLRDMISMYLPGAEVPEPAAPSRLHMSQHYQSGPVPGTAINGTLPLSHM
By Kd is commonly meant the concentration at which binding is half-saturated. Low values mean higher affinity, high ones lower affinity. For the molecule B1, the Kd came out at 93 µM in assay [1] and 74 µM in assay [2].
